Results taken from US12441811B2, “Compositions and methods for treating serpin B13 disorders” (REGENTS OF THE UNIVERSITY OF MINNESOTA, priority 2019, dated 2025).

Legend:
Notch1 receptor = assay: Examination of Notch1 receptor in embryonic pancreas (Western blot, flow cytometry, qPCR); type: cell-based, mouse; details: for levels of active Notch intracellular domain (aNICD): embryonic pancreas, antibody vs control Ab
Method: Staining for flow cytometry. BD LSRFortessa X-20, LSR-II and FACSCanto-II were used for FACS analysis. Positive populations of cells were gated and counted using FlowJo ver.10 software. For the islet cells isolated from adult mice, intracellular staining to detect glucagon and insulin was used to count single-positive as well as double-negative cells. In the cells isolated from embryonic pancreas explants, intracellular staining was performed to detect Ngn3, CK19, and active Notch, and extracellular staining was used to detect the extracellular Notch domain, EpCAM, CD31 and CD45.
Western blotting. Pancreatic tissues were processed from E16.5 embryos as single samples and directly used for lysis. Embryonic pancreas explants from E12.5 embryos were cultured in vitro with anti-serpinB13 mAb (or control Ab) for 24 or 48 hours, then, three explant cultures were combined and lysed. The samples were washed two times in ice-cold PBS and lysed with gentle pipetting for 10 minutes with additional tap-vortexing for 15 minutes in RIPA buffer containing Halt protease inhibitors (cat. no. 1862209, Thermo Fisher Scientific). Equal amounts of protein in each sample were run under reducing conditions on Bis-Tris BOLT gradient gel (4-12%) or NUPAGE Tris-acetate gradient gels (4-12%) (both from Thermo Fisher Scientific), and transferred onto […] nitrocellulose or activated PVDF membranes. The membranes were blocked with 5% skim milk and stained with primary and secondary antibodies, as indicated. The Western blots were developed with SuperSignal West Pico Chemiluminescent Substrate or West Femto Maximum Sensitivity Substrate (cat. nos. […] and […], respectively; both from Thermo Scientific), and scanned using the ChemiDoc™ MP Imaging System (Bio-Rad, Hercules, […], USA).
Quantitative real-time PCR. Total RNA from embryonic pancreases was extracted using the RNeasy UCP Micro kit (cat. no. 73934; Qiagen, Hilden, Germany) to measure expression of the Notch1 gene. One hundred to […] of the total RNA per group was reverse transcribed to cDNA using the iScript cDNA Synthesis Kit (cat. no. 1708891; Bio-Rad). Quantitative PCR assays were performed on an Applied Biosystems QuantStudio 3 real-time PCR system using cDNA and the Kapa Sybr Fast reagent (cat. no. 0795959100; Roche). Actin-R was used as a reference gene. The primer sequence for Notch1 was as follows: forward—5′[…]3′ and reverse—5′ […]3′.

[1] = test system: Ngn3+ endocrine progenitor cells; assay: Ngn3+ cells in embryonic pancreas explants (E12.5) cultured in vitro; type: cell-based, mouse; details: for number of CK19+ epithelial cells: E12.5 explants with mAb vs control Ab
Method: Isolation and culture of embryonic pancreas explants. The isolation and culture of embryonic pancreas explants was performed as described elsewhere, with minor modifications.
Processing of pancreatic tissue for immunofluorescence microscopy. The pancreatic tissues were isolated and fixed either overnight (adult pancreases), or for one hour (embryonic pancreas explants), in 2% PFA (pH 7.4), followed by a two-step saturation process: first in a 30% sucrose solution in PBS and then in optimal cutting temperature (OCT) compound. After complete saturation, the tissues were imbedded in OCT using Cryomold and then snap frozen in an ethanol/dry ice bath. The OCT blocks were serially cut through the entire organ to obtain representative sections every 600 μm (6 to 8 sections per adult pancreas), 50 μm (12 to 14 sections per E16.5 embryonic pancreas), 35 μm (10 to 12 sections per E14.5 embryonic pancreas), or 15 μm (10 to 12 sections per E12.5 embryonic pancreas cultured for 1 to 3 days). For the embryonic linage tracing experiments, three largest sections were taken for the analysis. For all other experiments involving immunofluorescence microscopy, all obtained sections were analyzed. […]
The sections from the pancreases of embryos at age E14.5 and E16.5, and newborn pups (OP), were stained with anti-Ngn3 antibody to determine the total number of endocrine progenitors cells for all sections per explant combined (FIG. 9G, FIG. 17A). Alternatively, the sections representing the pancreases of embryos at age E12.5 (which are considerably smaller) were stained with both anti-Ngn3 and anti-CK19 antibodies to determine the fraction of CK19-positive area that was occupied by Ngn3− positive staining (FIGS. 9D, 10A, 10C, 12D, 12G, 12J and FIGS. 15A, 20B). The following formula was used to adjust for any differences in the pancreas size: (Ngn3^+ cell number/μm^2 of CK19^+ cells)×10^5.
Image analysis. Embryonic images were processed with a plugin-Trainable Weka Segmentation v3.2.28 (Hamilton, New Zealand) for ImageJ v.1.52jv software. To classify and quantify the images in unbiased fashion, we defined the following four classes for the analysis: Ngn3^+ cells, the clusters of cytokeratin 19^+ cells, the negatively stained areas, and background (e.g., the area outside of tissue sample). Alternatively, the Visiopharm version 6.0 software (Visiopharm, Hoerholm, Denmark) with Author module was used to create applications to outline Ngn3^+ cells or double positive cells expressing YFP and insulin using preprocessing and postprocessing steps, when necessary. In addition, the Engine module of the Visiophram module was used to execute created applications and unbiasedly analyze the images. For the unbiased quantitative analysis of β-cells and islets in the whole pancreatic sections, Visiopharm Author module was trained to recognize insulin-positive β-cell clusters with diameter greater than 50 μm as well as negatively stained section area. In all studies involving microscopy the treatment assignments were blinded to investigators who performed data analysis.

catL [2] = details: previously shown by the applicant; cited from earlier work
catL [3] = assay: catL activity in vivo with activity-based probe ProSense 680; parameters: species or system mouse
Method: CatL has been implicated as a serpinB13 protease target. To examine the consequences of inhibiting serpinB13 using a mAb (clone B29), the catalytic activity of catL was measured. […] To measure catL activity in vivo, the activity-based probe, ProSense 680, was used. […] This increase was limited to the pancreas in wild-type Balb/c mice and was not observed in the liver, where serpinB13 is not expressed, or in the pancreas of catL-deficient Balb/c mice.

B1: B29: mouse monoclonal antibody to serpin B13, clone B29; heavy chain SEQ ID NO:14, kappa light chain SEQ ID NO:16 (antibody, V domains shown)
VH: QIQLVQSGPELKKPGETVKISCKASGYTFTTYGMSWVKQAPGKGLKWMGWINTYSGMPTYADDFKGRFAFSLETSATTAYLQINNLKNEDTATYFCARPLLGLDYWGQGTTLTVSS
VL: DIVMTQTPLSLSVTIGQPASISCKSSQSLLHSDGKTFLNWFLQRPGQSPKLLIYLVSKLESGIPDRFSGSGSGTDFTLKISRVEVEDLGVYYCLQHTHFPLTFGAGTKLEIK
With B1 the “~60 kD degradation fragments of Notch1” value (Notch1 receptor; E12.5 explants treated 48 hours) was “induction”, the “levels of active Notch intracellular domain (aNICD)” value (Notch1 receptor) was “diminished” and the “levels of active Notch intracellular domain (aNICD)” value (Notch1 receptor; listed as mAb) was “markedly reduced levels”. For the same molecule, the “expression of the ectodomain of the Notch1 receptor” value (Notch1 receptor; embryonic pancreatic tissue, in vivo and in vitro exposure, 24 and 48 hours) was “time-dependent reduced expression”, the “transcriptional level of Notch1” value (Notch1 receptor; quantitative PCR) was “relatively intact” and the “Ngn3+ cell population, upregulation by mAb” value ([1]; CatL-deficient embryonic pancreas explants, 48-hour culture) was “completely refractory to upregulation”. The “number of CK19+ epithelial cells” value [1] was “remained unchanged”, the “number of CK19+ epithelial cells” value ([1]; listed as mAb) was “did not change” and the “number of Ngn3+ cells” value ([1]; E12.5 explants, antibody at 1 μg/mL vs control Ab) was “significant increase”. For the same molecule, the “inhibitory properties of serpinB13” value (catL [2]) was “blocked”, the “increase in catL activity in the pancreas of catL-deficient mice” value (catL [3]; catL-deficient Balb/c mice) was “not observed” and the “increase in catL activity in the liver” value (catL [3]; liver, where serpinB13 is not expressed) was “not observed”. The catL activity (catL [3]; summary statement, setting not specified) was “augmented” and the “catL activity in the intact pancreas” value (catL [3]; wild-type Balb/c mice, after injection of mAb, ProSense 680) was “significant increase”.
